Experimental findings from the supplement of paper PMC7877785 are described below.

± gives the uncertainty stated by the source.

The data set is described as follows: self-splicing fitness, log relative to wild type (ln ratio); higher = more splicing; Tetrahymena group I intron in knt gene, E. coli kanamycin selection, DiMSum; sequences stand for … in CUCUCU…GGAGGGAAAAGUUAUCAGGCAUGCACCUGGUAGCUAGUCUUUAAACCAAUAGAUUGCAUCGGUUUAAAAGGCAAGACCGUCAAAUUGCGGGAAAGGGGUCAACAGCCGUUCAGUACCAAGUCUCAGGGGAAACUUUGAGAUGGCCUUGCAAAGGGUAUGGUAAUAAGCUGACGGACAUGGUCCUAACCACGCAGCCAAGUCCUAAGUCAACAGAUCUUCUGUUGAUAUGGAUGCAGUUCACAGACUAAAUGUCGGUCGGGGAAGAUGUAUUCUUCUCAUAAGAUAUAGUCGGACCUCUCCUUAAUGGGAGCUAGCGGAUGAAGUGAUGCAACACUGGAGCCGCUGGGAACUAAUUUGUAUGCGAAAGUAUAUUGAUUAGUUUUGGAGUACUCGUGGUCG
The procedure, abridged:
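Library with all eight P1ex-region intron nucleotides randomised, intron inside the knt kanamycin-resistance gene on pET-22b(+), in E. coli BL21(DE3). Cells grew overnight at 37°C or 30°C on LB agar with or without 25 μg/mL kanamycin (plus 100 μg/mL carbenicillin, 50 μM IPTG, 0.2% rhamnose), in six replicate transformations. Pooled colonies were amplicon-sequenced on Illumina HiSeq 2500. DiMSum fitness is the error-weighted combination of wild-type-normalised replicate fold changes, kanamycin versus none.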

Consider UUUGAGCAAUAUUACGCCGG, for which the “self-splicing fitness (ln)” value (30 °C) was -2.04 ± 0.35 and the “self-splicing fitness (ln)” value (37 °C) stood at 0.228 ± 0.38.

Take CUAGAGCAAUAUUACGUAAA: the “self-splicing fitness (ln)” value by setting is: (30 °C) -3.81 ± 0.24; (37 °C) -1.84 ± 0.25.

AGAGAGCAAUAUUACGGCGA: the “self-splicing fitness (ln)” value was -2.95 ± 0.39 (30 °C) and -1.82 ± 0.39 (37 °C).

Turning to UUGCAGCAAUAUUACGUGUU, the “self-splicing fitness (ln)” value (30 °C) is -3.1 ± 0.12 and the “self-splicing fitness (ln)” value (37 °C) was -2.47 ± 0.13. Turning to UUUCAGCAAUAUUACGAACA, the “self-splicing fitness (ln)” value was -0.771 ± 0.13 (30 °C) and 0.793 ± 0.22 (37 °C). UUAUAGCAAUAUUACGCAGC: the “self-splicing fitness (ln)” value is -3.44 ± 0.31 (30 °C) and -2.49 ± 0.45 (37 °C). For the sequence UCAUAGCAAUAUUACGCGCA, the “self-splicing fitness (ln)” value runs as follows: (30 °C) 0.0597 ± 0.12; (37 °C) 0.225 ± 0.12. As for ACCAAGCAAUAUUACGGUUG, the “self-splicing fitness (ln)” value is, setting by setting: (30 °C) -3.21 ± 0.11; (37 °C) -3.88 ± 0.23. With GAUUAGCAAUAUUACGUCGC, the “self-splicing fitness (ln)” value was -1.91 ± 0.15 (30 °C) and -0.838 ± 0.16 (37 °C). Take UAGCAGCAAUAUUACGUUUA: the “self-splicing fitness (ln)” value was -1.26 ± 0.067 (30 °C) and -0.291 ± 0.078 (37 °C). Take CGGUAGCAAUAUUACGAGCG: the “self-splicing fitness (ln)” value reads like this: (30 °C) -0.978 ± 0.19; (37 °C) -0.291 ± 0.14.

Take GACGAGCAAUAUUACGCCGC: the “self-splicing fitness (ln)” value is, setting by setting: (30 °C) -2.06 ± 0.16; (37 °C) -1.72 ± 0.38. Take ACGUAGCAAUAUUACGGGUG: the “self-splicing fitness (ln)” value runs as follows: (30 °C) -2.67 ± 0.086; (37 °C) -1.18 ± 0.085. Turning to CUUAAGCAAUAUUACGCAGG, the “self-splicing fitness (ln)” value by setting is: (30 °C) -3.05 ± 0.21; (37 °C) -2.96 ± 0.32. With AGGAAGCAAUAUUACGCUGG, the “self-splicing fitness (ln)” value is -3.46 ± 0.38 (30 °C) and -1.08 ± 0.27 (37 °C). Take CACUAGCAAUAUUACGGACU: the “self-splicing fitness (ln)” value (30 °C) was -2.87 ± 0.18 and the “self-splicing fitness (ln)” value (37 °C) is -1.13 ± 0.14. On to UUACAGCAAUAUUACGCAUA, for which the “self-splicing fitness (ln)” value by setting is: (30 °C) -1.34 ± 0.091; (37 °C) -0.527 ± 0.1. Regarding CUGAAGCAAUAUUACGAAUA, the “self-splicing fitness (ln)” value (30 °C) was -2.41 ± 0.48 and the “self-splicing fitness (ln)” value (37 °C) is -2.22 ± 0.43. Taken in the same sequence, the figures for AAUUAGCAAUAUUACGAAUU were -2.7 ± 0.15 and -1.1 ± 0.13.

As for GUGGAGCAAUAUUACGCGGU, the “self-splicing fitness (ln)” value runs as follows: (30 °C) -1.16 ± 0.3; (37 °C) -0.344 ± 0.29. For the sequence GCGGAGCAAUAUUACGCCGU, under “30 °C”, the “self-splicing fitness (ln)” value was -1.4 ± 0.28. For GCCAAGCAAUAUUACGAGAU, the “self-splicing fitness (ln)” value was -2.41 ± 0.14 (30 °C) and -2.1 ± 0.17 (37 °C). The matching figures for AAGGAGCAAUAUUACGCGCA: -1.82 ± 0.18 and -0.97 ± 0.2. Regarding CUGGAGCAAUAUUACGAUUA, the “self-splicing fitness (ln)” value reads like this: (30 °C) -2.56 ± 0.27; (37 °C) -1.07 ± 0.26. Regarding AUUAAGCAAUAUUACGACGA, the “self-splicing fitness (ln)” value is, setting by setting: (30 °C) -0.668 ± 0.11; (37 °C) 0.398 ± 0.13. Take UCCAAGCAAUAUUACGGGAU: the “self-splicing fitness (ln)” value was -3.88 ± 0.22 (30 °C) and -2.52 ± 0.16 (37 °C). Taken in the same sequence, the figures for CAGAAGCAAUAUUACGUGAU were -2.97 ± 0.14 and -1.26 ± 0.11.

With AGUAAGCAAUAUUACGCUUU, the “self-splicing fitness (ln)” value was -3.63 ± 0.26 (30 °C) and -2.36 ± 0.22 (37 °C).

Turning to UCGAAGCAAUAUUACGCUAU, the “self-splicing fitness (ln)” value reads like this: (30 °C) -3.24 ± 0.19; (37 °C) -3.36 ± 0.42. As to UAACAGCAAUAUUACGCUUU, the “self-splicing fitness (ln)” value was -3.43 ± 0.14 (30 °C) and -1.82 ± 0.13 (37 °C). UCAUAGCAAUAUUACGCAGC: the “self-splicing fitness (ln)” value is -3.15 ± 0.35 (30 °C) and -1.03 ± 0.23 (37 °C). In the case of GCUAAGCAAUAUUACGGGGU, the “self-splicing fitness (ln)” value reads like this: (30 °C) -2.06 ± 0.18; (37 °C) -3.04 ± 0.25. Turning to GAUGAGCAAUAUUACGUCCU, the “self-splicing fitness (ln)” value (37 °C) was -1.84 ± 0.49. GGGAAGCAAUAUUACGUGAA: the “self-splicing fitness (ln)” value runs as follows: (30 °C) -2.39 ± 0.18; (37 °C) -0.692 ± 0.17.

As for GCGAAGCAAUAUUACGUACA, the “self-splicing fitness (ln)” value by setting is: (30 °C) -1.9 ± 0.19; (37 °C) -1.29 ± 0.14.

As for AACCAGCAAUAUUACGCUUA, the “self-splicing fitness (ln)” value (30 °C) was -0.415 ± 0.046 and the “self-splicing fitness (ln)” value (37 °C) was -0.0597 ± 0.055. As to UACUAGCAAUAUUACGAGCU, the “self-splicing fitness (ln)” value (30 °C) is -2.4 ± 0.24. For CUAAAGCAAUAUUACGCAGU, the “self-splicing fitness (ln)” value by setting is: (30 °C) -3.13 ± 0.31; (37 °C) -3.43 ± 0.32. For UGGCAGCAAUAUUACGAAUC, for the setting “30 °C”, the “self-splicing fitness (ln)” value is -2.3 ± 0.25.
